From the supplement of paper PMC10724198
± gives the standard deviation of the averaged measurements.

Legend:
Saccharomyces cerevisiae [1] = test: protein stability index of tFT-peptide fusion (C-terminal peptide) (PSI (0-1 scale)); higher = more stable (slower turnover)
Description: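 MPS profiling in S. cerevisiae of the tFT-X12 degron library: putative degron peptides plus stable controls, 12 aa, fused to the C-terminus of a sfGFP-mCherry timer. Cells are FACS-sorted into 8 mCherry/sfGFP bins and deep-sequenced. PSI runs from 0 (unstable) to 1 (stable). Backgrounds are wild type, das1Δ and doa10Δ at 30 °C, and wild type, das1Δ, cdc34-1 and cdc53-1 at 37 °C; 2-3 technical replicates each.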

Saccharomyces cerevisiae [2] = test: as above; details: genetic background: wild type; temperature: 30 C
[3] = genetic background: cdc34-1, temperature: 37 C
[4] = genetic background: cdc53-1, temperature: 37 C
[5] = genetic background: das1 deletion, temperature: 30 C
[6] = genetic background: das1 deletion, temperature: 37 C
[7] = genetic background: doa10 deletion, temperature: 30 C
[8] = genetic background: wild type, temperature: 30 C
[9] = genetic background: wild type, temperature: 37 C
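Further: PSI is a weighted mean of sequencing reads over stability bins, variants kept only with over 10 reads, mCherry proximal and sfGFP distal, peptide attached via GGGS linker.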

Sequence	protein stability index (Saccharomyces cerevisiae [1]; [3])	protein stability index (Saccharomyces cerevisiae [1]; [4])	protein stability index (Saccharomyces cerevisiae [1]; [5])	protein stability index (Saccharomyces cerevisiae [1]; [6])	protein stability index (Saccharomyces cerevisiae [1]; [7])	protein stability index (Saccharomyces cerevisiae [1]; [8])	protein stability index (Saccharomyces cerevisiae [1]; [9])	protein stability index (Saccharomyces cerevisiae [2])
VPGPSPPRFTQR	0.7134 ± 0.0016	0.762 ± 0.016	0.6584 ± 0.0019	0.741 ± 0.0094	0.644 ± 0.028	0.656 ± 0.011	0.692 ± 0.025	0.559 ± 0.1
VPVWHTVKLYCF	0.342 ± 0.0081	0.439 ± 0.0077	0.345 ± 0.038	0.4934 ± 0.0021	0.073 ± 0.00079	0.088 ± 0.017	0.0851 ± 0.018	0.159 ± 0.061
VPWSKIAARLII	0.6593 ± 0.0029	0.706 ± 0.011	0.618 ± 0.02	0.734 ± 0.022	0.227 ± 0.015	0.315 ± 0.054	0.5015 ± 0.0036	0.446 ± 0.068
VRMMYSVQVWCG	0.0466 ± 0.011	0.138 ± 0.03	0.0633 ± 0.029	0.165 ± 0.012	0.02927 ± 0.00015	0.0222 ± 0.0046	0.0439 ± 0.0023	0.0363 ± 0.036
VRVWLLACASKG	0.3332 ± 0.00082	0.423 ± 0.026	0.236 ± 0.0066	0.378 ± 0.019	0.228 ± 0.037	0.24 ± 0.015	0.3609 ± 0.0016	0.281 ± 0.014
VSDLYLSLVRVV	0.59 ± 0.032	0.593 ± 0.011	0.46 ± 0.034	0.604 ± 0.009	0.256 ± 0.0031	0.31 ± 0.029	0.492 ± 0.017	0.45 ± 0.078
VSGVLRSMVRLQ	0.641 ± 0.044	0.7477 ± 0.0057	0.66 ± 0.034	0.736 ± 0.032	0.266 ± 0.017	0.324 ± 0.031	0.58 ± 0.03	0.453 ± 0.011
VSRAVCLWRRLL	0.479 ± 0.006	0.68 ± 0.061	0.618 ± 0.0096	0.7305 ± 0.0018	0.0796 ± 0.0058	0.104 ± 0.036	0.124 ± 0.026	0.0882 ± 0.088
VSSFLLPFCLLF	0.65 ± 0.025	0.689 ± 0.029	0.645 ± 0.0076	0.714 ± 0.025	0.654 ± 0.021	0.641 ± 0.016	0.6753 ± 0.0013	0.51 ± 0.1
VSWSVSALIYLK	0.169 ± 0.017	0.1 ± 0.026	0.233 ± 0.039	0.319 ± 0.014	0.572 ± 0.01	0.277 ± 0.034	0.295 ± 0.015	0.35 ± 0.0075
VTLLCRFFMLVF	0.454 ± 0.01	0.5149 ± 0.00071	0.402 ± 0.025	0.543 ± 0.01	0.273 ± 0.014	0.289 ± 0.014	0.428 ± 0.017	0.369 ± 0.021
VVGFVFSCWWSW	0.433 ± 0.031	0.4646 ± 0.00097	0.367 ± 0.039	0.506 ± 0.013	0.365 ± 0.015	0.372 ± 0.045	0.46 ± 0.014	0.5003 ± 0.0031
VVGVLLLYLNPF	0.431 ± 0.0048	0.5071 ± 0.0037	0.351 ± 0.025	0.572 ± 0.023	0.3188 ± 0.0024	0.336 ± 0.039	0.525 ± 0.0095	0.4677 ± 0.0038
VVLWWWVVARDL	0.414 ± 0.019	0.495 ± 0.038	0.402 ± 0.03	0.551 ± 0.031	0.332 ± 0.026	0.339 ± 0.03	0.514 ± 0.01	0.44 ± 0.028
VVRLRVWRLLKV	0.267 ± 0.022	0.33 ± 0.048	0.253 ± 0.03	0.42491 ± 4.8e-05	0.101 ± 0.034	0.161 ± 0.026	0.185 ± 0.016	0.225 ± 0.023
VVRSIVVYTCVF	0.3284 ± 0.0017	0.365 ± 0.041	0.262 ± 0.026	0.4241 ± 0.0025	0.219 ± 0.0039	0.253 ± 0.02	0.405 ± 0.0074	0.352 ± 0.021
VVRVIWCQFSCF	0.494 ± 0.036	0.545 ± 0.016	0.414 ± 0.026	0.595 ± 0.017	0.208 ± 0.0071	0.234 ± 0.022	0.434 ± 0.027	0.334 ± 0.0057

Sequence	protein stability index (Saccharomyces cerevisiae [1]; [3])	protein stability index (Saccharomyces cerevisiae [1]; [4])	protein stability index (Saccharomyces cerevisiae [1]; [5])	protein stability index (Saccharomyces cerevisiae [1]; [6])	protein stability index (Saccharomyces cerevisiae [1]; [7])	protein stability index (Saccharomyces cerevisiae [1]; [8])	protein stability index (Saccharomyces cerevisiae [1]; [9])	protein stability index (Saccharomyces cerevisiae [2])
VVTLHISLFYPG	0.447 ± 0.033	0.511 ± 0.018	0.406 ± 0.031	0.5 ± 0.0056	0.418 ± 0.06	0.415 ± 0.029	0.461 ± 0.019	0.479 ± 0.023
VVVRARVFFHIF	0.285 ± 0.012	0.444 ± 0.015	0.361 ± 0.022	0.538 ± 0.006	0.0651 ± 0.0018	0.0583 ± 0.025	0.07 ± 0.014	0.0561 ± 0.048
VVWLFGVSWCWL	0.429 ± 0.018	0.5093 ± 0.0025	0.355 ± 0.022	0.525 ± 0.006	0.313 ± 0.011	0.34 ± 0.03	0.518 ± 0.015	0.419 ± 0.0056
VWACWCGWVLLM	0.319 ± 0.038	0.388 ± 0.024	0.314 ± 0.027	0.4667 ± 0.0039	0.153 ± 0.0066	0.15 ± 0.019	0.195 ± 0.0032	0.235 ± 0.072
VWLFCLSRLYLL	0.298 ± 0.039	0.383 ± 0.007	0.38 ± 0.03	0.4939 ± 0.0043	0.143 ± 0.015	0.101 ± 0.023	0.114 ± 0.011	0.206 ± 0.052
VYCQRFMLLFTP	0.527 ± 0.059	0.535 ± 0.019	0.459 ± 0.03	0.581 ± 0.021	0.553 ± 0.011	0.433 ± 0.0094	0.55 ± 0.0071	0.4872 ± 0.0007
VYGSLPVVVCRI	0.534 ± 0.059	0.538 ± 0.013	0.409 ± 0.023	0.56 ± 0.016	0.4 ± 0.022	0.413 ± 0.011	0.539 ± 0.011	0.525 ± 0.065
VYIVLLLLFLRP	0.356 ± 0.0046	0.378 ± 0.013	0.317 ± 0.031	0.407 ± 0.021	0.3194 ± 0.003	0.319 ± 0.015	0.3951 ± 0.0015	0.308 ± 0.031
VYLVLRCGSVLV	0.565 ± 0.015	0.56 ± 0.032	0.406 ± 0.021	0.597 ± 0.011	0.379 ± 0.018	0.399 ± 0.016	0.586 ± 0.02	0.443 ± 0.054
VYVLVFNMENIS	0.5603 ± 0.0009	0.588 ± 0.0096	0.382 ± 0.03	0.616 ± 0.011	0.382 ± 0.0068	0.401 ± 0.033	0.585 ± 0.036	0.4891 ± 0.0047
VYVSRTRPFSLY	0.682 ± 0.052	0.7141 ± 0.0054	0.63 ± 0.011	0.728 ± 0.022	0.33 ± 0.0094	0.3687 ± 0.0034	0.573 ± 0.007	0.428 ± 0.031
WACAWRGMVKVG	0.202 ± 0.021	0.245 ± 0.0068	0.232 ± 0.034	0.38 ± 0.0041	0.0812 ± 0.0095	0.0897 ± 0.021	0.0811 ± 0.0041	0.156 ± 0.018
WAIVVLVCFLRL	0.283 ± 0.011	0.299 ± 0.0052	0.277 ± 0.022	0.388 ± 0.017	0.332 ± 0.024	0.277 ± 0.019	0.362 ± 0.011	0.343 ± 0.017
WCCCVSGFVWWM	0.563 ± 0.012	0.6296 ± 0.0022	0.491 ± 0.03	0.633 ± 0.021	0.458 ± 0.011	0.465 ± 0.015	0.602 ± 0.017	0.526 ± 0.11
WCGSWGVWMRLG	0.296 ± 0.08	0.456 ± 0.015	0.534 ± 0.03	0.646 ± 0.02	0.0974 ± 0.008	0.0842 ± 0.0092	0.112 ± 0.029	0.122 ± 0.031
WEPILLELELCV	0.498 ± 0.035	0.497 ± 0.026	0.395 ± 0.03	0.487 ± 0.023	0.327 ± 0.021	0.388 ± 0.013	0.538 ± 0.068	0.4357 ± 0.0036
